The numbers were not newly measured in US7550436B2, “Compositions containing peptide and electrolyte excretion promoter and foods containing the same” (Kracie Pharma, Ltd., priority 2000, dated 2009), which cites them from elsewhere.

No end group written: not given here.

In the data set the target is angiotensin converting enzyme (Homo sapiens, UniProt P12821). The note with it: reported in JP-B-60-23085, JP-B-61-51562, JP-B-61-51564, JP-B-5-21092.
Sequence of angiotensin converting enzyme (P12821 30-1306, species assumed): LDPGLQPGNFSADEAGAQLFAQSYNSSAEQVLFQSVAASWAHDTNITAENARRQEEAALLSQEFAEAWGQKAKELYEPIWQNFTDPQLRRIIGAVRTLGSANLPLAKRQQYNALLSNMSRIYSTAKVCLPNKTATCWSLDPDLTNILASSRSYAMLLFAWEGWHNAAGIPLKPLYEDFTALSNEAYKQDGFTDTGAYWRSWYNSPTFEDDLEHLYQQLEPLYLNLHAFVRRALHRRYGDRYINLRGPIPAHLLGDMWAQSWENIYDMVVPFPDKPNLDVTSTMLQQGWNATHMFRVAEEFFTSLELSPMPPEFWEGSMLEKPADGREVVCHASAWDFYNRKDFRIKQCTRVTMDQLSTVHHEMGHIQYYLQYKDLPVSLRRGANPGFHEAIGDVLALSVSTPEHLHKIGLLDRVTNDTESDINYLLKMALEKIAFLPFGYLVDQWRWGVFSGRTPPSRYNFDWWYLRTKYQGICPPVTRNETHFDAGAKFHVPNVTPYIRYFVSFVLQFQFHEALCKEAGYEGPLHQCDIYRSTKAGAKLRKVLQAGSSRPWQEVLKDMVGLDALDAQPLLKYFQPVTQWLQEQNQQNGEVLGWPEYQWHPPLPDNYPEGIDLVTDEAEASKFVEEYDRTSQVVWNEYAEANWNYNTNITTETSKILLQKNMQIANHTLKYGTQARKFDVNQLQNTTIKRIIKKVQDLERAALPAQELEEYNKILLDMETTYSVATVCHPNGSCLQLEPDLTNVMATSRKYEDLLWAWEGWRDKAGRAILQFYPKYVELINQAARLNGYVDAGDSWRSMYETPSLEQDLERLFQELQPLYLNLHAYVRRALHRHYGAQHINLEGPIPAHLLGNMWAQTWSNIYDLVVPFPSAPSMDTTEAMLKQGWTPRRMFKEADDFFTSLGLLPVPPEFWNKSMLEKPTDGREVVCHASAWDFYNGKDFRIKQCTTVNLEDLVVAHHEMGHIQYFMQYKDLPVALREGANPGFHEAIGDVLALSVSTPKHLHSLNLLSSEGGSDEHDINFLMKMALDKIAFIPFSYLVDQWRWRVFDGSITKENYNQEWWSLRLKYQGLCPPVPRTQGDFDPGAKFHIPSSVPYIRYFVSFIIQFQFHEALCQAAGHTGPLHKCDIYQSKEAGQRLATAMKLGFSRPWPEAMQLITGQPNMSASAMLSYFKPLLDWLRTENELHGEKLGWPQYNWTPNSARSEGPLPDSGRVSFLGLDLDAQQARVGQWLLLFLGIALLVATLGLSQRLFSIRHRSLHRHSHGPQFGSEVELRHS
Turning to “AVPYPQR [Cβ7, ID No. 2, casein-origin peptide]”, the “inhibitory activity to angiotensin converting enzyme (ACE)” value (from here on “inhibitory activity … (ACE)”) was “inhibitory activity”.
For the substance “TTMPLW [Example C6, ID No. 3, casein-origin peptide]”, the “inhibitory activity … (ACE)” value is “inhibitory activity”.
“FFVAPFPEVFGK [Example C12, ID No. 1, casein-origin peptide]”: the “inhibitory activity … (ACE)” value is “inhibitory activity”.
